Non-standard residues stand in square brackets, D forms with d. No end group written: not given here. Tyr(3-NO2) = N[C@@H](Cc1ccc(O)c([N+](=O)[O-])c1)C(=O)O; 2Abz = Nc1ccccc1C(=O)O
Key:
TS5-5 (ADAMTS-5) = target: T1, TS5-5 (ADAMTS-5) (Homo sapiens, UniProt Q9UNA0); test: Sensitivity studies with TS5-5; format: biochemical; details: 37 °C; for ΔRFU after 20 h: single experiment in triplicate; for lowest ADAMTS-5 concentration at which activity is detected: 5 μM substrate, experiments performed for ∼20 h
T1 construct: ADAMTS-5 (i.e. TS5-5, residues 264–555); FLAG; made in house; host or cells: HEK293 cells (previously transfected stocks)
T1 sequence (Q9UNA0 264-555): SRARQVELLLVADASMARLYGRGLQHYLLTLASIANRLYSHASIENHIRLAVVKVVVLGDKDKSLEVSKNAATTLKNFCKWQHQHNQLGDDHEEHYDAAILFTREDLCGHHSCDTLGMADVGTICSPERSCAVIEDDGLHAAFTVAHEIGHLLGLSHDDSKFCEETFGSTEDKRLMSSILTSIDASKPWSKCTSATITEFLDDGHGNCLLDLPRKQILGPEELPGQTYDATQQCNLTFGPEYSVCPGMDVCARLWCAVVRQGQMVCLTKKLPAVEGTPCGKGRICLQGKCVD
Description: Abz-TESE↓SRGAIY-Dpa-KK-NH2, library parent peptide 3 and hit peptide 26 (5 mM) were each diluted to two concentrations (5.56 μM and 2.78 μM) in freshly prepared TNC buffer with 0.005% (v/v) Brij-35. The two concentrations for each substrate (90 μL) were added to a 96-well black microplate in triplicate. A substrate-only background control was also added in triplicate (90 μL). The resultant solutions were incubated at 37 °C (20 min). TS5-5 proteinase was thawed from −20 °C and made up at the following concentrations in TNC buffer with 0.005% (v/v) Brij-35:10, 5, 2.5, and 1.25 nM. Each concentration of proteinase was added to substrate wells (10 μL), with buffer added to substrate-only control wells (10 μL). The relative fluorescence intensity was measured at 37 °C for 24 h, with readings every 2 min.

[1] = system: MMP-9ΔC (catalytic domain of MMP-9); test: Selectivity studies: cleavage of FRET peptide substrates by MMP-9ΔC; format: biochemical; details: ratio of cleavage rates, substrate 20 μM
Description: All proteinase assays were performed at 37 °C in a SpectraMax M5 spectrophotometer (Molecular Devices, San Jose, USA) using a 96-well black microplate (Greiner bio-one, Stonehouse, UK) unless otherwise stated. […] N-TIMP-3 was purified as described previously[30] and CT-1746 was a gift from Dr. Yoshifumi Itoh (Kennedy Institute of Rheumatology, University of Oxford). All analyses were carried out using Prism 9 software (GraphPad, La Jolla, CA, USA).
Selectivity studies are described for Abz-TESE↓SRGAIY-Dpa-KK-NH2, the library parent peptide 3, and hit peptides 18–26. A solution of Abz-TESE↓SRGAIY-Dpa-KK-NH2 (22.22 μM) in freshly prepared TNC buffer with 0.005% (v/v) Brij-35 (90 μL) was added to a 96-well clear bottom microplate (Greiner bio-one, Stonehouse, UK) in triplicate. A substrate-only background control was also added in triplicate (90 μL). The resultant solutions were incubated at 37 °C (30 min). An ADAMTS or MMP proteinase was added to substrate wells (10 μL) to give a final proteinase concentration of either 50–90 nM (TS4-4), 25–200 nM (TS5-5), 5–10 nM (MMP-2ΔC), 30 nM (MMP-9ΔC), 92 nM (MMP-1), or 3 μM (MMP-3). TNC buffer with 0.005% (v/v) Brij-35 was added to substrate-only control wells (10 μL). The relative fluorescence intensity was measured at 37 °C for 1 h with readings every 20 s. Activity was read from underneath the microplate, which was covered with a low evaporation lid. […] For each ADAMTS and MMP proteinase, the assay was performed 2–4 times. […] Final rates were expressed as a percentage of substrate cleavage by TS5-5 (mean ± SEM) or in μM s^–1 μM^–1 of proteinase.

| Substance | ΔRFU after 20 h (TS5-5 (ADAMTS-5); 0.25 nM TS5-5, substrate 5 μM) | ΔRFU after 20 h (TS5-5 (ADAMTS-5); 0.5 nM TS5-5, substrate 5 μM) | ΔRFU after 20 h (TS5-5 (ADAMTS-5); 1 nM TS5-5, substrate 5 μM) | preference (selectivity) for TS5-5 over MMP-9ΔC [1] [fold] | lowest ADAMTS-5 concentration at which activity is detected (TS5-5 (ADAMTS-5)) [nM] |
| --- | --- | --- | --- | --- | --- |
| Abz-TESE↓SRGAIY-Dpa-KK-NH2 [current, ortho-aminobenzoyl(Abz)-TESE↓SRGAIY-N-3-[2,4-dinitrophenyl]-L-2,3-diaminopropionyl(Dpa)-KK-NH2, reference compound] | no longer able to detect TS5-5 activity above background fluorescence | 59 | > 100 | ~213 | – |
| KY(NO2)SENESRGK(Abz)IYYKKG (K[Tyr(3-NO2)]SENESRGK(2Abz)IYYKKG) [Compound 26] | > 30 | > 100 | > 100 | ~548 | 0.25 |
| KY(NO2)TESESRGK(Abz)IYYKKG (K[Tyr(3-NO2)]TESESRGK(Abz)IYYKKG) [Compound 3] | > 30 | > 100 | > 100 | ~2561 | 0.25 |

Reference: paper PMC10009750, “Development of Selective ADAMTS-5 Peptide Substrates to Monitor Proteinase Activity” (Journal of Medicinal Chemistry, 2023)
